From article PMC10916864 (Molecular Biology of the Cell, 2024)

Target: T1, His-mNeon-tagged EBP50 PDZ1-PDZ2 fragment (human, UniProt O14745-1 1-298)
T1 sequence (looked up): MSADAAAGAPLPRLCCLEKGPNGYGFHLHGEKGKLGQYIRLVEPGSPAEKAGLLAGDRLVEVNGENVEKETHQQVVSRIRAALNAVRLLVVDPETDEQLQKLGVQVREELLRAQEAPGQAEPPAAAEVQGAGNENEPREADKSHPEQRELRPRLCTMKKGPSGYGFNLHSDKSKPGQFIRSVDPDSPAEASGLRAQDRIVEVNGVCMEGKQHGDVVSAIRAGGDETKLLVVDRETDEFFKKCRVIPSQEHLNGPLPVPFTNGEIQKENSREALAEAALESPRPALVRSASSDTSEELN
Experiment: pull-down

B1: GST-CDHR5 CD (GST fusion of the cytoplasmic tail of CDHR5) (domain or fragment, human, UniProt Q9HBB8-1 697-845, looked up)
chain: RLKCCCGKAPEPQPQGFDNQAFLPDHKANWAPVPSPTHDPKPAEAPMPAEPAPPGPASPGGAPEPPAAARAGGSPTAVRSILTKERRPEGGYKAVWFGEDIGTEADVVVLNAPTLDVDGASDSGSGDEGEGAGRGGGPYDAPGGDDSYI
B1: binds.
